Where a chain is given by its changes, count along the chain named.

In assay [1] the target is T1, ADAM33 expressed in transiently transfected HEK293 cells (HEK293-ADAM33) (UniProt Q9BZ11 204-813).
T1 construct: whole, on cells; Expression in HEK293 cells is mainly intracellular; also called HEK293-A33; A33
T1 sequence (looked up): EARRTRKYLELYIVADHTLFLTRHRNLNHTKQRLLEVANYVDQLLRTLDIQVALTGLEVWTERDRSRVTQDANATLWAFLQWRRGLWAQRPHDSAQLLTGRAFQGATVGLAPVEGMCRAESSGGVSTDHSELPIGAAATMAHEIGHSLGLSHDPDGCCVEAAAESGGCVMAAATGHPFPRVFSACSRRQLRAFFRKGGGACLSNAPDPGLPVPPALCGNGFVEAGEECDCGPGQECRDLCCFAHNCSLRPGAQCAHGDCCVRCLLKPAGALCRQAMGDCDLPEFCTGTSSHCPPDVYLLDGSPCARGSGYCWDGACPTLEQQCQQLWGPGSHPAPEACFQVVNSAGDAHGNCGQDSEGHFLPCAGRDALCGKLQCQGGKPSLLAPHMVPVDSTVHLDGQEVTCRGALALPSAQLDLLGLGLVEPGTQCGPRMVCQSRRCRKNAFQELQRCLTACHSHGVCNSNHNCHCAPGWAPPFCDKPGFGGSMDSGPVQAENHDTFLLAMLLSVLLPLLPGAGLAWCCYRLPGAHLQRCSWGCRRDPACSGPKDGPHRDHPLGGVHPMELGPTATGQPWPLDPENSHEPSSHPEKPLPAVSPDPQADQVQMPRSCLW
As to the kind of experiment: FACS, fixed and permeabilized HEK293-ADAM33 cells. As for the experimental part: ADP2 and ADP13 were also tested for cross-reactivity to the ADAM8 related protein ADAM33 using a variation of the above FACS protocol, which included steps for cell fixation and permeabilization. FACS was performed as an ELISA assay was precluded due to the lack of commercially available recombinant ADAM33. Cell fixation and permeabilization steps were needed as ADAM33 expression in HEK293 cells is primarily intracellular. HEK293 cells were transiently transfected over a 48-hr period with an ADAM33 construct (Clone ID HsCD00419548, Harvard Plasmid Information Database) or a control EV DNA (Plasmid #25890, Addgene) using Lipofectamine® 2000. Single cell suspensions (1×10⁶ cells/ml) were prepared in FACS buffer. Cell samples (1 ml) were centrifuged, resuspended in 50 μL cold 4% paraformaldehyde and incubated for 20 minutes at 4° C. in the dark with occasional shaking. Cells were then washed once with 1 ml FACS buffer, and then twice with 0.1% saponin FACS buffer. Samples were exposed to primary antibodies in 50 μL of 0.1% saponin FACS buffer for 30 minutes at 4° C. For ADP2, ADP13 and their respective IgG2b and IgG1 isotype matched controls, 2 μg of antibody were used. […] After three washes in 0.1% saponin FACS buffer, cells were resuspended in 500 μL FACS buffer and analyzed on a BD FACSCalibur™ machine.

Another assay addresses T2, R482A (Homo sapiens, UniProt P78325).
T2 construct: expressed on HEK293 cells; also called human ADAM8 point mutant R482A
T2 sequence (ADAM8, looked up): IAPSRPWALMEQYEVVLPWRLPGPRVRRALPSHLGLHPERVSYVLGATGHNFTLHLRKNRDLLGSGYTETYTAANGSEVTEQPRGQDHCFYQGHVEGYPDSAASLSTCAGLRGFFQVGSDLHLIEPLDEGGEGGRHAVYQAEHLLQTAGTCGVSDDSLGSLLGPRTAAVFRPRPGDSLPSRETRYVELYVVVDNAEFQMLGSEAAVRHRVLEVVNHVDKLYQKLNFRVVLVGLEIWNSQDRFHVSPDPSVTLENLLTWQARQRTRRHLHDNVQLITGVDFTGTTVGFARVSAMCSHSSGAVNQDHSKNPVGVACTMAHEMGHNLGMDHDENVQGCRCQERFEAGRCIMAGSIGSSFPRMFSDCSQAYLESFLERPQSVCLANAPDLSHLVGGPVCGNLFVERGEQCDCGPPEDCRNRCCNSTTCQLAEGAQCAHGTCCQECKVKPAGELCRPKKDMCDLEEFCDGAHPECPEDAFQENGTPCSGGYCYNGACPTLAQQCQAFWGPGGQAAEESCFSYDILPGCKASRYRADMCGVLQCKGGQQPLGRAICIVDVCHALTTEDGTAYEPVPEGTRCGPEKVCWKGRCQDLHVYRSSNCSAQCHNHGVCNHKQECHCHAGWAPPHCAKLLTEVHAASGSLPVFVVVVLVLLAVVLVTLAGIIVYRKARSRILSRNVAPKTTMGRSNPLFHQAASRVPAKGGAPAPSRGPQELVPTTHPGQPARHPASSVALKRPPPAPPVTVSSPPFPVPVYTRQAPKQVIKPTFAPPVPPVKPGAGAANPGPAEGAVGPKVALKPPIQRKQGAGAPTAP
Nature of the assay: high-throughput flow cytometry, HEK293 cells with mutant ADAM8, high stringency; range in parentheses. As for the experimental part: A variety of experimental parameters were optimized for high-throughput flow cytometry including blocking buffer, and primary and secondary antibody concentrations, to identify the optimal conditions for screening. Through these studies ADP2 and ADP13 were determined to be high affinity binding antibodies.
Thus, for these studies antigen-binding fragments (Fabs) of ADP2 and ADP13, which bind with lower affinity than the full antibody, were generated. In addition, higher binding stringency conditions were tested, such as increased pH, salinity, and temperature, and/or increased washing, to weaken binding sufficiently to allow identification of critical binding residues in flow cytometry. The final experimental flow cytometry conditions were: primary antibody incubation with ADP2 Fab (0.50 μg/ml), ADP13 Fab (5.00 μg/ml) and Control Ab (0.16 μg/ml) for 60 minutes in flow cytometry buffer containing 10% goat serum in PBS (Ca²⁺ and Mg²⁺ free). […] Samples were washed three times after primary antibody incubation and twice after secondary antibody incubation with PBS (Ca²⁺ and Mg′ free). Next, HEK293 cells expressing WT or mutated ADAM8 proteins or EV DNA were incubated with ADP2 or ADP13 Fabs or Control Ab at their optimal concentrations. Fab binding was detected using Alexa Fluor 488-conjugated secondary antibodies and mean cellular fluorescence determined using the Intellicyt iQue flow cytometry platform. […] This counter-screen strategy facilitates the exclusion of mutants that are locally misfolded or that have an expression defect. Binding of each test Fab to each mutant clone in the alanine scanning library was determined, in duplicate, by high-throughput flow cytometry.

B1: ADP13 (antibody, IgG1, V domains shown)
VH: EVQLQQSGPEMVKPGTSVKISCKASGYTFTDYYINWVKQSHGKSLEWIGDISPNIGGATYNPKFKGKAILTVDKSARTAYMELRSLTSEDSAVYCCTRGGSSYPYFYAMDYWGQGTSVTVSS
VL: DIVMSQSPSSLAVSVGEKVTMSCKSSQSLLYSSNQKKYLAWYQQKPGQSPKLLIYWASTRESGVPDRFTGSGSGTDFTLTISSVKAEDLAVYYCQQFYSYPYTFGGGTKLEINR
notes: also called mADP13; mouse ADP13
Consider B1, for which, in assay [1], the binding result is given as “no binding (tested: 2 µg antibody per sample)”.

B2: ADP2 (antibody, V domains shown)
VH: EVKLVESGGGLVQPGGSLSLSCAASGFSFPDYYMSWVRQPPGKALEWLGFIRDSANGYTTEYIASVKGRFTFSRDNSQSILYLQMNALRAEDSATYYCARYSRYYGMDYWGQGTSVTVSS
VL: SIVMTQTPKILLVSAGDRVTITCKASQTVNYDVAWYQQKPGQSPKPVIYFASNRYTGVPDRFTGSGFGTDFTFTISTVQAEDLAVYFCQQDYSAPWTFGGGTKLEIK
notes: also called mADP2; mouse ADP2
Turning to B2, the binding result in assay [1] is “no binding (tested: 2 µg antibody per sample)”.

B3: ADP2 Fab (Fab, V domains shown)
VH: B2 VH
VL: B2 VL
On to B3, for which the “Binding Reactivity (% WT)” value in the assay with R482A worked out at 113 % WT.

Values taken from US20220227882A1 (TRUSTEES OF TUFTS COLLEGE, published 2022).
